For this assay, the target named is poliovirus receptor (PVR) (UniProt P15151). Kind of assay: cell-based or functional assay.
poliovirus receptor (PVR), sequence (P15151 21-417 limits assumed): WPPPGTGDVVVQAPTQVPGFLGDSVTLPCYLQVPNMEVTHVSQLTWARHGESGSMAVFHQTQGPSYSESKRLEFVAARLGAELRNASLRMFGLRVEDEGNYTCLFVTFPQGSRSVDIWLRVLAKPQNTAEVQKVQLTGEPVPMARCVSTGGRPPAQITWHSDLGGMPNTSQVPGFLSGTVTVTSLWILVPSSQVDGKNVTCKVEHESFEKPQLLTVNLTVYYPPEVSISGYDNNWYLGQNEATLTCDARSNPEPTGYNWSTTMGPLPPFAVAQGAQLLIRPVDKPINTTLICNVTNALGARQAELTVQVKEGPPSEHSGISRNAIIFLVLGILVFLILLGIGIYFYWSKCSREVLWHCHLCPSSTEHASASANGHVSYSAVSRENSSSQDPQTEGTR

The sequence “T cell immunoreceptor with Ig and ITIM domains (TIGIT) (from UniProt Q495A1 22-244)” displayed a frequency of TNFα+ NK cells after A549 spheroid co-culture (isotype control) and restimulation with PVR+ K562 cells of 15%; a loss in the IFNγ generation capacity of A549 spheroid-exposed PM21-NK cells of 30%.

Source of the values: patent US20240226168A1.
